Data: IntAct's records for PubMed 22252131

B1: E3 ubiquitin-protein ligase Hakai (Mus musculus), Q9JIY2 (parent)
chain: MDHTDNELQGTNSSGSLGGLDVRRRIPIKLISKQASKVKPAPRTQRTVSRMPAKAPQGDEEGFDYNEEQRYDCKGGELFGNQRRFPGHLFWDFKINILGEKDDTPVHFCDKCGLPIKVYGRMIPCKHVFCYDCAILHEKKGDKMCPGCSDPVQRIEQCTRGSLFMCSIVQGCKRTYLSQRDLQAHINHRHMRAGKPVTRASLENVHPPIAPPPTDIPDRFIMPPDKHHMSHIPPKQHIMMPPPPLQHVPHEHYNQPHEDIRAPPAELSMAPPPPRSVSQETFRISTRKHSNLITVPIQDDSSSGAREPPPPAPAPAHHHPEYQGQPVVSHPHHIMPPQQHYAPPPPPPPPISHPMPHPPQAAGTPHLVYSQAPPPPMTSAPPPITPPPGHIIAQMPPYMNHPPPGPPPPQHGGPPVTAPPPHHYNPNSLPQFTEDQGTLSPPFTQPGGMSPGIWPAPRGPPPPPRMQGPPSQTPLPGPHHPDQTRYRPYYQ
B2: Cadherin-1 (Homo sapiens), P12830 (parent)
chain: MGPWSRSLSALLLLLQVSSWLCQEPEPCHPGFDAESYTFTVPRRHLERGRVLGRVNFEDCTGRQRTAYFSLDTRFKVGTDGVITVKRPLRFHNPQIHFLVYAWDSTYRKFSTKVTLNTVGHHHRPPPHQASVSGIQAELLTFPNSSPGLRRQKRDWVIPPISCPENEKGPFPKNLVQIKSNKDKEGKVFYSITGQGADTPPVGVFIIERETGWLKVTEPLDRERIATYTLFSHAVSSNGNAVEDPMEILITVTDQNDNKPEFTQEVFKGSVMEGALPGTSVMEVTATDADDDVNTYNAAIAYTILSQDPELPDKNMFTINRNTGVISVVTTGLDRESFPTYTLVVQAADLQGEGLSTTATAVITVTDTNDNPPIFNPTTYKGQVPENEANVVITTLKVTDADAPNTPAWEAVYTILNDDGGQFVVTTNPVNNDGILKTAKGLDFEAKQQYILHVAVTNVVPFEVSLTTSTATVTVDVLDVNEAPIFVPPEKRVEVSEDFGVGQEITSYTAQEPDTFMEQKITYRIWRDTANWLEINPDTGAISTRAELDREDFEHVKNSTYTALIIATDNGSPVATGTGTLLLILSDVNDNAPIPEPRTIFFCERNPKPQVINIIDADLPPNTSPFTAELTHGASANWTIQYNDPTQESIILKPKMALEVGDYKINLKLMDNQNKDQVTTLEVSVCDCEGAAGVCRKAQPVEAGLQIPAILGILGGILALLILILLLLLFLRRRAVVKEPLLPPEDDTRDNVYYYDEEGGGEEDQDFDLSQLHRGLDARPEVTRNDVAPTLMSVPRYLPRPANPDEIGNFIDENLKAADTDPTAPPYDSLLVFDYEGSGSEAASLSSLNSSESDKDQDYDYLNEWGNRFKKLADMYGGGEDD

Variants of: B1
Settings: with cadh1_human CDH1, P12830

effect of a mutation on the interaction	Variant
disrupting interaction	C166A

Variants of: B1
Settings: with src8_human CTTN

effect of a mutation on the interaction	Variant
disrupting interaction	C166A

Variants of: B1
Settings: with cadh1_human CDH1, P12830
Remark: another data set of the same source

effect of a mutation on the interaction	Variant
disrupting interaction	H190A

Variants of: B1
Settings: with src8_human CTTN
Remark: another data set of the same source

effect of a mutation on the interaction	Variant
disrupting interaction	H190A

Variants of: B1
Settings: with cadh1_human CDH1, P12830
Remark: another data set of the same source

effect of a mutation on the interaction	Variant
disrupting interaction	Y176A

Variants of: B1
Settings: with src8_human CTTN
Remark: another data set of the same source

effect of a mutation on the interaction	Variant
disrupting interaction	Y176A

Variants of: B1
Settings: with cadh1_human CDH1, P12830
Remark: another data set of the same source

effect of a mutation on the interaction	Variant
disrupting interaction	C172A

Variants of: B1
Settings: with src8_human CTTN
Remark: another data set of the same source

effect of a mutation on the interaction	Variant
disrupting interaction	C172A

Variants of: B1
Settings: with cadh1_human CDH1, P12830
Remark: another data set of the same source

effect of a mutation on the interaction	Variant
disrupting interaction	H127A

Variants of: B1
Settings: with src8_human CTTN
Remark: another data set of the same source

effect of a mutation on the interaction	Variant
disrupting interaction	H127A

Variants of: B1
Settings: with cadh1_human CDH1, P12830
Remark: another data set of the same source

effect of a mutation on the interaction	Variant
disrupting interaction	R189A

Variants of: B1
Settings: with src8_human CTTN
Remark: another data set of the same source

effect of a mutation on the interaction	Variant
disrupting interaction	R189A

Variants of: B1
Settings: with cadh1_human CDH1, P12830
Remark: another data set of the same source

effect of a mutation on the interaction	Variant
disrupting interaction	H185A

Variants of: B1
Settings: with src8_human CTTN
Remark: another data set of the same source

effect of a mutation on the interaction	Variant
disrupting interaction	H185A

Variants of: B2
Settings: with hakai_mouse Cbll1, Q9JIY2

effect of a mutation on the interaction	Variant
disrupting interaction	E757A

Variants of: B2
Settings: with hakai_mouse Cbll1, Q9JIY2
Remark: another data set of the same source

effect of a mutation on the interaction	Variant
disrupting interaction	Y754F

Variants of: B2
Settings: with hakai_mouse Cbll1, Q9JIY2
Remark: another data set of the same source

effect of a mutation on the interaction	Variant
disrupting interaction	Y755F

Variants of: B2
Settings: with hakai_mouse Cbll1, Q9JIY2
Remark: another data set of the same source

effect of a mutation on the interaction	Variant
disrupting interaction	D756A

Variants of: B2
Settings: with hakai_mouse Cbll1, Q9JIY2
Remark: another data set of the same source

effect of a mutation on the interaction	Variant
disrupting interaction	V752A

Variants of: B2
Settings: with hakai_mouse Cbll1, Q9JIY2
Remark: another data set of the same source

effect of a mutation on the interaction	Variant
disrupting interaction	Y753F

Variants of: B2
Settings: with hakai_mouse Cbll1, Q9JIY2
Remark: another data set of the same source

effect of a mutation on the interaction	Variant
disrupting interaction	D750A
